# From US20140079722A1, “EXTRACELLULAR TARGETED DRUG CONJUGATES” (CENTROSE, LLC, priority 2011, published 2014)
# Numbering of substitutions follows the chain as printed.
# T1: human dysadherin (human, UniProt Q96DB9 22-178)
# T1 chain: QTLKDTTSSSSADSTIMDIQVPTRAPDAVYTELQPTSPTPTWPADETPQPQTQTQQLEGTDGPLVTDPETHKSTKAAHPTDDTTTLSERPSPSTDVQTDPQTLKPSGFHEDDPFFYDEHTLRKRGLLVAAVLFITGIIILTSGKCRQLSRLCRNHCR
# B1: scFv-PEG24-CEN09-106 (scFv)
# scFv: ECQLVESGGGLVQPKGTLKLSCAASGFSFNTHAMNWVRQAPGKSLEWVARTMSKSNNYATYYADSVKDRFIISRDDSQSMLYLQMNNLKTEDTAMYYCVRDDPKRGMDYWGQGTSVTVSSGGGGSGGGGSGGGGSGIVMSQSPSSLAVSVGEKVTMSCKPSQSLLYSRNQKIYLAWYQQKPGQSPKLLIYWASTRESGVPDRFTGSGSGTDFTLIISSVRAEDLAVYYCQQYYNYPLTFGAGTKLELK
# modifications: PEG24-CEN09-106 (scillarenin linker-drug) on the unpaired cysteine (position 23 of SEQ ID NO: 30)
# B2: scFv-PEG36-CEN09-016: scFv conjugate with PEG36 linker, 1 drug per scFv (conjugate)
# scFv: B1 scFv
# B3: scFv-PEG12-CEN09-016: scFv conjugate with PEG12 linker, 1 drug per scFv (conjugate)
# scFv: B1 scFv
# B4: M53-PEG24-CEN10-110 (antibody, V domains shown)
# VH: EVQLVESGGGLVQPKGTLKLSCAASGFSFNTHAMNWVRQAPGKSLEWVARTMSKSNNYATYYADSVKDRFIIRADDSQSMLYLQMNNLKTEDTAMYYCVRDDPKRGMDYWGQGTSVTVSS
# VL: GIVMSQSPSSLAVSVGEKVTMSCKPSQSLLYSRNQKIYLAWYQQKPGQSPKLLIYWASTRESGVPDRFTGSGSGTDFTLIISSVRAEDLAVYYCQQYYNYPLTFGAGTKLELKR
# modifications: PEG24-CEN10-110 on reduced cysteine thiols; positions not given; PEG24-CEN10-110 (scillarenin linker-drug with lysine in the linker) on reduced cysteine thiols; positions not given
# B5: cM53-PEG24-CEN09-106 (antibody, human IgG1, kappa, V domains shown)
# VH: B4 VH with V2C, R73S, A74R
# VL: B4 VL
# modifications: PEG24-CEN09-106 on cysteine thiols; positions not stated (cysteine in place of valine at position 2 of SEQ ID NO: 23)
# B6: M53-PEG24-CEN-319 (antibody, V domains shown)
# VH: B4 VH
# VL: B4 VL
# modifications: PEG24-CEN-319 on reduced cysteine thiols; positions not given; PEG24-CEN-319 (digitoxigenin 4-amino-xyloside PEG24 maleimide linker-drug) on reduced cysteine thiols; positions not given
# B7: M53-PEG24-CEN09-107 (antibody, V domains shown)
# VH: B4 VH
# VL: B4 VL
# modifications: PEG24-CEN09-107 on reduced cysteine thiols; positions not given; PEG24-CEN09-107 (scillarenin 4-amino-riboside PEG24 maleimide linker-drug) on reduced cysteine thiols; positions not given
# Legend:
# [1] = tested on: NSCLC cell line A549; assay: In vitro cytotoxicity of M53-PEG24-CEN09-106 drug combinations; assay type: cell-based; details: Homo sapiens
# Procedure: The studies employed a fixed ratio of the drugs (based on the EC50 values of each alone) across a concentration gradient. Single drug ED50 values were first determined and from those values combination analysis were prepared by 3-fold serial dilutions in 8 steps for all compounds. Combinations were tested using fixed concentration ratios. […] All compound concentrations and combinations were tested in duplicate. Cell culture and cell viability assays were performed as described.
# [2] = tested on: A549 xenograft; assay: A549 xenograft model (cell implant); assay type: in vivo, Hsd:Athymic Nude-Foxn1nu mice; details: controls: paclitaxel 15 mg/kg q2dx5; control conjugate (loading 7) 10 mg/kg i.v. q7dx3; A549 xenograft
# Procedure: Briefly, to establish a non-small-cell lung cancer disease model, 6×10^6 A549 cells in 200 μL, RPMI1640+50% Matrigel HC (BD Biosciences, San Jose, Calif.) were implanted into the left flank of Hsd:Athymic Nude-Foxn1^nu mice (Harlan, Indianapolis, Ind.). Therapy with antibody-drug conjugates was then initiated when the tumor volume in groups of 5 animals averaged ˜300 mm^3. Treatment using vehicle control, 0.1 and 1 mg/kg M53-PEG24-CEN09-106, and 10 mg/kg control M53-PEG24-CEN09-106 (a control conjugate with a drug loading of 7 drugs per antibody where the antibody's target is not on the cell surface but drug and linker and antibody isotype are the same as M53-PEG24-CEN09-106) were all administered i.v. using the schedule of one injection every 7 days with 3 total injected doses (q7d×3). 15 mg/kg paclitaxel dosed at q2d×5 served as a positive control treatment group. Using this schedule, tumor volumes were measured for each group using calibrated vernier calipers and plotted against first day of tumor implant for 54 days post-implant and 40 days post-initial dose, to produce the graph shown in FIG. 3.
# [3] = tested on: A549 xenografts; assay: Second A549 xenograft study (tumor fragments); assay type: in vivo, female HRLN nu/nu mice; details: for growth inhibition of the tumor compared to vehicle: 100 days post-initial dose, EDC (loading 3) 5 mg/kg i.p. q3dx4, scillarenin aminoxyloside 20 mg/kg q2dx5, paclitaxel 15 mg/kg q1dx5; for weight loss: same dosing as efficacy arms, second A549 xenograft study
# Procedure: Briefly, to establish a non-small-cell lung cancer disease model, subcutaneous A549 xenografts were initiated in female HRLN nu/nu mice by implanting 8 mm^3 A549 tumor fragments subcutaneously into the left flank. Tumor growth was monitored, and mice bearing tumors of 60-180 mm^3 were selected for the study. Tumor-bearing mice (n=7 mice/group) with a group average tumor volume of approximately 110 mm^3 were treated i.p. with 5 mgs/kg M53-PEG24-CEN09-106 at q3d×4, 20 mg/kg scillarenin-4-amino-deoxy-L-xylopryanoside (an intermediate in the construction of M53-PEG24-CEN09-106 and known cytotoxin) at q2dx5, and 15 mg/kg paclitaxel at q1d×5. Tumor volumes were measured for each group using calibrated vernier calipers plotted against day of first dose for 100 days to produce the graph shown in FIG. 4.
# Paclitaxel at its optimum dosing produced 80% growth inhibition of the tumor when compared to vehicle.
# [4] = tested on: H460 xenograft; assay: H460 xenograft model; assay type: in vivo, Hsd:Athymic Nude-Foxn1nu mice; details: H460 xenograft
# Procedure: Briefly, to establish a large-cell lung cancer disease model, 1×10^6 H-460 cells in 100 μL RPMI1640+30% Matrigel HC (BD Biosciences, San Jose, Calif.) were implanted into the left flank of Hsd:Athymic Nude-Foxn1^nu mice (Harlan, Indianapolis, Ind.). Therapy was initiated when the tumor size in groups of 5 animals averaged ˜200 mm^3. Treatment using vehicle control, M53-PEG24-CEN09-106 at 0.1 and 1 mg/kg, and 10 mg/kg control M53-PEG24-CEN09-106 (as described above) consisted of multiple i.v. injections using the schedule of one injection every 7 days for 2 injections (q7d×2). Paclitaxel served as a positive control treatment group and was dosed i.v. at 15 mg/kg using the schedule of one injection every 2 days for 5 injections (q2d×5). Using this schedule, tumor volumes were measured for each group using calibrated vernier calipers and plotted against day of tumor implant for 24 days post-implant and 12 days post-initial dose, graphed and shown in FIG. 5.
# [5] = tested on: PANC-1 xenograft; assay: PANC-1 xenograft model, alone and with gemcitabine; assay type: in vivo, C.B-17/IcrHsd-Prkdc scid Lyst bg mice; details: gemcitabine alone 60 mg/kg i.p. q3dx5
# Procedure: A disease model of pancreatic cancer was established by implanting 5×10^6 PANC-1 cells in 100 μL DMEM into the left flank of 7 week old female C.B-17/IcrHsd-Prkdc^scidLyst^bg mice. Mice were then treated with M53-PEG24-CEN09-106 with a drug loading of 8 and/or gemcitabine when the tumor size in groups of 3 animals averaged ˜500 mm^3. Treatments consisted of either vehicle control, M53-PEG24-CEN09-106 at 0.2, 1 and 5 mg/kg, with and without 60 mg/kg gemcitabine or 60 mg/kg gemcitabine alone and consisted of multiple injections using the M53-PEG24-CEN09-106 schedule of one injection every 7 days for 3 injections (q7d×3) administered i.v. and the gemcitabine schedule of one injection every 3 days for 5 injections (q3d×5) administered i.p. Tumor volumes were measured for each group using calibrated vernier calipers and plotted against first day of tumor implant for 28 days post-initial dose, graphed and shown in FIG. 6.
# [6] = target: T1, human dysadherin; assay: cell-based or functional assay
# [7] = tested on: NSCLC cell line A549; assay: In vitro activity of chimeric and scFv conjugates against A549; details: A549 cells; scFv conjugates
# Procedure: Cells were incubated with the agent/conjugate for 3 days before cell viability testing. Cell viability testing used the CellTiter-Glo luminescent cell viability assay (Promega, Madison, Wis.).
# [8] = target: T1, human dysadherin; assay: cell-based or functional assay
molecule,measurement,setting,value
CCN(CC)CCCCNc1ncc2cc(-c3cc(OC)cc(OC)c3)c(NC(=O)NC(C)(C)C)nc2n1 [PD 0173074],EC50,[1]; A549,29000 nM
"CC(=O)O[C@H]1C(=O)[C@@]2(C)[C@H]([C@H](OC(=O)c3ccccc3)[C@]3(O)C[C@H](OC(=O)[C@H](O)[C@@H](NC(=O)c4ccccc4)c4ccccc4)C(C)=C1C3(C)C)[C@]1(OC(C)=O)CO[C@@H]1C[C@@H]2O [Paclitaxel, reference compound]",growth inhibition of the tumor compared to vehicle,[2],45%
same,growth inhibition of the tumor compared to vehicle,[3],80%
same,weight loss,[3],11%
same,weight loss,"[4]; EDC 0.1 mg/kg q7dx2, paclitaxel 15 mg/kg q2dx5",15%
same,growth inhibition of the tumor compared to vehicle,"[4]; controls: paclitaxel 15 mg/kg i.v. q2dx5, control conjugate 10 mg/kg i.v. q7dx2",78%
C[C@]12CC[C@H](OC3OC[C@H](N)[C@@H](O)[C@@H]3O)C=C1CCC1C2CC[C@]2(C)[C@@H](c3ccc(=O)oc3)CC[C@]12O (stereo partly drawn) [Scillarenin-4-amino-4-deoxy-L-xylopyranoside],growth inhibition of the tumor compared to vehicle,[3],60%
same,weight loss,[3],8%
"Nc1ccn([C@@H]2O[C@H](CO)[C@@H](O)C2(F)F)c(=O)n1 [Gemcitabine, reference compound]",growth inhibition of the tumor compared to vehicle,[5],68%
CO[C@H]1C[C@@H]2CC[C@@H](C)[C@@](O)(O2)C(=O)C(=O)N2CCCC[C@H]2C(=O)O[C@H]([C@H](C)C[C@@H]2CC[C@@H](OCCO)[C@H](OC)C2)CC(=O)[C@H](C)/C=C(\C)[C@@H](O)[C@@H](OC)C(=O)[C@H](C)C[C@H](C)/C=C/C=C/C=C/1C [Everolimus],EC50,"[1]; drug alone, A549 cells, read-out: EC50",11 nM
B1,"EC50, in vitro activity against A549 cells",[6],1.6 nM
B2,EC50,[7],1.1 nM
B3,EC50,[7],9.1 nM
B4,"EC50, cytotoxicity (CellTiter-Glo cell viability), A375 cells",[8],0.5 nM
same,"EC50, cytotoxicity (CellTiter-Glo cell viability), A549 cells",[8],0.1 nM
same,"EC50, cytotoxicity (CellTiter-Glo cell viability), H460 cells",[8],0.2 nM
B5,"EC50, in vitro activity against A549 cells",[6],2 nM
B6,"EC50, cytotoxicity (CellTiter-Glo cell viability), A549 cells",[8],1.6 nM
same,"EC50, cytotoxicity (CellTiter-Glo cell viability), H929 cells",[8],> 200 nM
same,"EC50, cytotoxicity (CellTiter-Glo cell viability), PANC cells",[8],> 200 nM
B7,"EC50, cytotoxicity (CellTiter-Glo cell viability), A375 cells",[8],2.6 nM
same,"EC50, cytotoxicity (CellTiter-Glo cell viability), A549 cells",[8],0.5 nM
